How the values were obtained:
[1] = target: FITC-labeled AC413(6–25) with Y25P mutation; test: fluorescence anisotropy, FITC-peptide probe binding; settings: anisotropy at the highest receptor concentration shown, log [RAMP1 ECD-CTR ECD fusion] M = -6; parent: est. 0.19; read off a plot
[2] = target: FITC-labeled salmon calcitonin (sCT) fragment(22–32); test: as above; settings: anisotropy at the highest receptor concentration shown for this mutant, read off a plot
[3] = target: amylin receptor 1 extracellular domain, wild type (hRAMP1.24–111-(GSA)3-hCTR.34–141-H6) (human) (UniProt O60894); test: competition binding assay; non-labeled sCT(22–32) as competitor on amylin receptor 1 ECDs (Figure S3); probe and conditions not shown
[4] = target: amylin receptor 1 ECD ECD (Homo sapiens) (UniProt P30988); settings: cited from earlier work
[5] = log [RAMP1 ECD-CTR ECD fusion] M = -5.5, parent: est. 0.19

Chain of salmon calcitonin fragment sCT(22-32) 22-32 (P01263 whole entry, looked up, the tested form may be a part): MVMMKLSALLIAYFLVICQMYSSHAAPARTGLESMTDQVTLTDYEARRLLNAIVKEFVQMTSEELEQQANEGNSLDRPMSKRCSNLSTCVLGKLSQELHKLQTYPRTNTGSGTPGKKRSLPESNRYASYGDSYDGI

Substance	response [1]	response [2, 5]	other results
amylin receptor 1 extracellular domain, wild type (hRAMP1.24–111-(GSA)3-hCTR.34–141-H6) (from UniProt O60894) D101A	0.041		response ([2]; log [RAMP1 ECD-CTR ECD fusion] M = -6, parent: est. 0.18): 0.035
amylin receptor 1 extracellular domain, wild type (hRAMP1.24–111-(GSA)3-hCTR.34–141-H6) (from UniProt O60894) D101E	0.046	0.035	
amylin receptor 1 extracellular domain, wild type (hRAMP1.24–111-(GSA)3-hCTR.34–141-H6) (from UniProt O60894) N135A	0.1	0.081	
amylin receptor 1 extracellular domain, wild type (hRAMP1.24–111-(GSA)3-hCTR.34–141-H6) (from UniProt O60894) N135D	0.056	0.052	
non-labeled salmon calcitonin (sCT) (22–32) fragment (peptide)			Ki [3]: 891 nM
salmon calcitonin fragment sCT(22-32) 22-32 (from UniProt P01263)			Ki [4]: 2500 nM

From PMC12292835, “Amylin Receptor 1 Mutagenesis Revealed a Potential Role of Calcitonin Serine 29 in Receptor Interaction” (Biomedicines, 2025)
